Measurements reported in patent US11098081B2, “Epitope tag and method for detection and/or purification of tagged polypeptides” (ChromoTek GmbH, priority 2015, dated 2021).
“And” between values parts separate entries of the source, which are not always exact repeats. Equal values may be shown once.

T1: full-length β-catenin or domains (N-terminus aa 1-119, armadillo domain, C-terminus) (Homo sapiens, UniProt P35222)
T1 construct: full-length β-catenin or the following domains of β-catenin: N-terminus aa 1-119; made in house; host or cells: E. coli BL21(DE3) CodonPlus-RIL
T1 sequence (P35222 1-119): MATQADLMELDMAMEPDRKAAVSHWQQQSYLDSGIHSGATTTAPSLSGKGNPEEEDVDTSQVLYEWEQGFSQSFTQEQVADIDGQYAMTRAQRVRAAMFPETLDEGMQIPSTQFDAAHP


Key:
[1] = biological target: T1, full-length β-catenin or domains (N-terminus aa 1-119, armadillo domain, C-terminus); test: Domain mapping of β-catenin binders (microsphere-based sandwich immunoassay); assay type: binding
Method: Microsphere-immobilized Nbs were incubated with GST-fusion constructs comprising full-length β-catenin or indicated domains. Captured β-catenin constructs were detected with domain-specific antibodies. For direct comparison, fluorescence intensities obtained with domain-specific antibodies were normalized to signals obtained with an anti-GST-antibody.
BC2-Nb was covalently immobilized on microspheres using a modified manufacturer's protocol described in Poetz et al. ((2009) Microsphere-based co-immunoprecipitation in multiplex. Analytical biochemistry 395, 244-248). Immobilized BC2-Nb was incubated with purified proteins representing full-length β-catenin or the following domains of β-catenin: N-terminus aa 1-119, armadillo domain aa 120-683 and C-terminus aa 683-781. Purified Glutathion-S-transferase (GST) was used as a negative control. Concentrations range from 0.25 μg/ml to 2 μg/ml. Bound proteins were detected with domain-specific antibodies including ABC antibody clone 8E7 (Merck Millipore) specific for the N-terminus, anti-β-catenin 9G10 (Merck Millipore) targeting the armadillo domain and anti-β-catenin clone 14 (Becton Dickinson) specifically recognizing the C-terminus. To detect unspecific binding of the BC2-Nb to GST an antibody against GST (6G9, ChromoTek) was used. […] The microspheres were measured in a FlexMap 3D instrument (Luminex). […]

[2] = biological target: GFP with a C-terminal BC2-tag (GFPBC2T) (Aequorea victoria, UniProt P42212, F64L/H231L/S65T)
Method: For surface plasmon resonance spectroscopy (SPR)-based affinity measurements. […] The obtained data sets were evaluated using the 1:1 Langmuir binding model with mass transfer. As a control.
The affinity measurements of the BC2 nanobody and the indicated mutants thereof to GFPBC2T were performed using surface plasmon resonance spectroscopy with a Biacore 3000 instrument (GE-Healthcare). GFPBC2T was covalently coupled on dextran fibers of a CM5 sensorchip (GE Healthcare) to a response level of 500 RU. One flow cells was activated and blocked in the absence of protein to determine background, another was loaded with untagged GFP as a control against unspecific binding. […] Each measurement was done in duplicates. As running dilution buffer 10 mM HEPES pH 7.4, 150 mM NaCl, 0.5% surfactant Tween was used. Measurements were performed at 25° C. For the association of BC2-Nb a How rate of 50 μl/min for 15 s and for the dissociation a flow rate of 50 μl/min for 600 s was applied. The regeneration was induced by injection of 23 μl regeneration solution at a flow rate of 30 μl/min. As regeneration solution 10 mM glycine-HCl pH 2.0 was used. The data was evaluated using the software Bia evaluation 4.1 and the 1:1 Langmuir binding model with mass transfer.

[3] = tested on: peptides of the β-catenin N-terminus (aa 1-127); test: Epitope mapping (pepscan) with biotinylated BC2-Nb on peptide-coated microspheres; assay type: binding, human
Description: (SEQ ID NO: 4), […] […] (SEQ ID NO: 65).
As negative controls, microspheres comprising Ovalbumin and the Myc-peptide ([…]) covalently coupled to OVA-microspheres were used.

[4] = tested on: HeLa cells expressing mCherry-VIMBC2T or GFP-PCNABC2T; test: Immunocytochemistry with fluorescently labeled BC2-Nb; assay type: cell-based, human; settings: mCherry-VIMBC2T (AF488) or GFP-PCNABC2T (ATTO647)
Description: (b) HeLa cells ectopically expressing mCherry-VIMBC2T or eGFP-PCNABC2T were fixed either with methanol or PFA, respectively, followed by staining with the indicated fluorescently labeled BC2-Nbs and DAPI. Scale bar 25 μm.
HeLa cells ectopically expressing untagged mCherry-VIM or eGFP-PCNA were fixed with methanol or PFA, respectively, and stained with the indicated fluorescently labeled BC2-Nbs and DAPI. Scale bar 25 μm.
For immunocytochemistry 5-10×10^3 adherent HeLa cells per well of a μClear 96 well plate (Greiner) were transfected with plasmids coding for C-terminally BC2-tagged vimentin or PCNA After 24 h, cells were washed once with PBS and fixed with 4% w/v paraformaldehyde (PFA) in PBS for 15 mm at RT or with methanol for 15 mm at −20° C. After removal of the fixative and washing twice with PBS, cells were blocked and permeabilized with 3% w/v BSA and 0.1% v/v Triton X-100 in PBS for 1 h at RT Subsequently, labeled BC2 nanobody was added with a final concentration of 10-15 μg/ml and 4′,6-diamidino-2-phenyl indole (DAPI, Sigma Aldrich) with a final concentration of 1 μg/ml for overnight incubation at 4° C. Unbound nanobody and DAPI were removed by washing 3 limes with a mixture of PBS and 6% v/v 5 M NaCl in H2O. Images of FIG. 4 b and FIG. 10 b were acquired with an Image Xpress micro XL system. Confocal images of FIG. 10 a were acquired with an ImageXpress Micro Confocal.

[5] = tested on: BC2-tagged proteins (eGFP-PCNABC2T, mCherry-VIMBC2T); test: Western blot detection with fluorescently labeled BC2-Nb; assay type: binding
Method: (b) For Western blot detection using fluorescently labeled B2-Nb (BC2-NbAF488) indicated amounts of the input fractions (as shown in (a)) were subjected to SDS-PAGE and immunoblotting. The Western blots were probed with BC2-N488 followed by detection with anti-PCNA (left panel) or anti-Vimentin (right panel) antibodies. As loading control blots were probed with an anti-GAPDH antibody (lower panel).
Denaturing polyacrylamide gel electrophoresis (SDS-PAGE) was performed according to standard procedures Protein samples were boiled in 2× SDS-sample buffer (60 mM Tris/HCl, pH 6.8; 2% (w/v) SDS; 5% (v/v) 2-mercaploethanol, 10% (v/v) glycerol, 0.02% bromophenole blue). For immunoblotting proteins were transferred on nitrocellulose membranes (Bio-Rad Laboratories).
Purified BC2 nanobody (1 mg) was labeled with the NHS-activated fluorescent dyes Alexa488 (Life technologies) or Atto647 (Atto-Tec) according to manufacturer's guidelines. After coupling, unbound dye was removed by separation on PD-10 Desalting Columns (GE Healthcare). For immunoblot analysis. 5 μg of BC2-NbAF488 was diluted in 4 ml 3% BSA diluted in TBS, 0.05% Tween20 and Western blots were incubated for 1 h at RT.

Row | Molecule | β-catenin domain recognized [1] | Rmax [RU] ([2]; SPR, GFPBC2T on CM5 chip, 1:1 Langmuir binding model with mass transfer) | Kd ([2]; SPR, GFPBC2T on CM5 chip, 25° C., 1:1 Langmuir binding model with mass transfer) | kon (M^−1s^−1) ([2]; SPR, association rate constant) | koff (s^−1) ([2]; SPR, dissociation rate constant) | fold higher affinity compared to FLAG, HA, c-myc or EPEA systems ([2]; comparison with literature values of prior-art tag systems) | binding to epitope peptide with phosphorylated Ser23 [3] | binding to overlapping 15-mer peptides ([3]; 29 peptides covering aa 1-127) | amino acid sequence recognized (minimal epitope) ([3]; N- and C-terminally truncated peptides) | co-localization with BC2-tagged protein in fixed HeLa cells [4] | signal for endogenous β-catenin in Western blot ([5]; in the presence of BC2-tagged proteins) | specificity in Western blot detection ([5]; untagged proteins not detected)
1 | BC2-Nb: nanobody; variable region of a heavy chain antibody of Camelidae, 122 aa, SEQ ID NO: 6, binds the BC2 epitope tag (protein, BC2-Nb) VHH: QVQLVESGGGLVQPGGSLTLSCTASGFTLDHYDIGWFRQAPGKEREGVSCINNSDDDTYYADSVKGRFTIFMDNAKDTVYLQMNSLKPEDTAIYYCAEARGCKRGRYEYDFWGQGTQVTVSS | exclusively recognizes the N-terminal domain (aa 1-119) | 170 ± 0.34 RU | 1.4 nM and ~1.4 nM | 4.6 ± 0.04 × 10^5 M^−1s^−1 | 6.4 ± 0.27 × 10^−4 s^−1 | 10-100 fold | completely abolishes binding | strong binding to two consecutive peptides comprising the residues 13-31 | PDRKAAVSHWQQ | – | – | –
2 | BC2-NbATTO647: BC2-Nb coupled to the organic dye ATTO647 (conjugate, left off: small tags and cut ends, BC2-Nb coupled to the organic dye ATTO647) VHH: QVQLVESGGGLVQPGGSLTLSCTASGFTLDHYDIGWFRQAPGKEREGVSCINNSDDDTYYADSVKGRFTIFMDNAKDTVYLQMNSLKPEDTAIYYCAEARGCKRGRYEYDFWGQGTQVTVSS | – | – | – | – | – | – | – | – | – | clear co-localization | – | –
3 | BC2-NbAF488: BC2-Nb chemically coupled to the organic dye AlexaFluor488 (conjugate, left off: small tags and cut ends, BC2-Nb chemically coupled to the organic dye AlexaFluor488) VHH: QVQLVESGGGLVQPGGSLTLSCTASGFTLDHYDIGWFRQAPGKEREGVSCINNSDDDTYYADSVKGRFTIFMDNAKDTVYLQMNSLKPEDTAIYYCAEARGCKRGRYEYDFWGQGTQVTVSS | – | – | – | – | – | – | – | – | – | strong co-localization | no signal for β-catenin was detected | highly specific for BC2-tagged proteins
